Data: paper PMC6829326 (International Journal of Molecular Sciences, 2019)
Where a chain is given by its changes, count along the chain named.

B1: C-8-2 scFv displayed on phage (scFv, V domains shown)
VH: EVQLVQSGAEVKKPGSSVKVSCKASGGTESSEAISWVRQAPGQGLEWMGGIIPFFGTANYAQKFQGRVTITADESTSTAYMELSSLRSEDTAVYYCARDGRKDYYGSGSYLHYYGMDVWGQGTTVTVSS
VL: ELVMTQSPLSLPVTPGEPASISCRSSQSLLHSNGYNYLDWYLQRPGQSPQLLIYLGSNRASGVPDRFSGSGSGTDFTLKIGRVEAEDVGIYYCMQALQTPLTFGGGTKVEIK
notes: also called C-8-2 clone
B2: C-8-2-4B-10D scFv displayed on phage (scFv, V domains shown)
VH: B1 VH with G26D, T28K, S30K, S31R, G56D, T57K
VL: B1 VL with L30V, L97V
B3: C-8-2-4B scFv displayed on phage (scFv, V domains shown)
VH: B1 VH with G26D, T28K, S30K, S31R, G56D, T57K
VL: B1 VL
notes: also called clone C-8-2-4B

These binders were tested against T1, recombinant MERS-CoV S RBD protein (MERS-CoV, strain ; EMC/2012 …, UniProt K0BRG7) (assay: ELISA). Conditions: one partner purified.
T1 construct: source: bought: Sino Biological Inc

Binder | binding result
B1 | binds
B2 | binds
B3 | binds
